Assay results from US20050112168A1 (UNIVERSITY OF ROCHESTER, published 2005).
Ends that are not written are not given here.

How the values were obtained:
[1] = target: T1, purified type V tartrate resistant acid phosphatase (TRAP), also known as uteroferrin (UniProt P09889 22-340, limits assumed); assay: M13 random 12-mer phage display, three rounds of bio-panning on immobilised TRAP
T1 construct: Purified protein used as immobilised bait, in ELISA, Scatchard, Far-Western and GST pull-down; also called type V TRAP; purified TRAP
T1 sequence (looked up): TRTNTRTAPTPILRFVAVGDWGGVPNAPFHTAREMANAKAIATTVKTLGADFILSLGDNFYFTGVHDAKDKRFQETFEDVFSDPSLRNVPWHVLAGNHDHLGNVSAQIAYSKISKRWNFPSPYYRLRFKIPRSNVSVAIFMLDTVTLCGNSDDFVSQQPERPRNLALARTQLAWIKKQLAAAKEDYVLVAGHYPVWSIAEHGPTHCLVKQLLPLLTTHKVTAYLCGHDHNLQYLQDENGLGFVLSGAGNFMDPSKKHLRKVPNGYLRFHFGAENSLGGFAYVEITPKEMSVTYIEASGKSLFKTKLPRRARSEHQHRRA

[2] = target: T1, purified type V tartrate resistant acid …; assay: modified phage ELISA on immobilised TRAP, antibody to the phage coat
[3] = target: T2, Smad 2 (UniProt Q15796 2-467, limits assumed); assay: GST-TRAP pull-down from lysate of cells without HIS-TRIP, Western
T2 construct: Detected by a bought antibody in the pull-down

[4] = target: T3, type II TGFβ receptor (UniProt P37173 23-567, limits assumed); assay: as above
T3 construct: From lysate of transfected cells; also called TGFβRII; TGFβ type II receptor

[5] = target: T1, purified type V tartrate resistant acid …; assay: Scatchard-type analysis, immobilised TRAP and increasing phage titer, bound phage counted by plaque assay
[6] = target: T4, RNase A (UniProt P61823 27-150); assay: Far-Western, proteins on membrane probed with Clone 5 phage
T4 construct: Control
T4 sequence (looked up): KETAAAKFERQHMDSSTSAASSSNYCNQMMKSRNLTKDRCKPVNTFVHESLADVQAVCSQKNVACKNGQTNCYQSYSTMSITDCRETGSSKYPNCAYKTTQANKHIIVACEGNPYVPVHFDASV

[7] = target: T5, bovine serum albumin (bovine, UniProt P02769 25-607); assay: as above
T5 construct: Control; also called BSA

[8] = target: T6, VP-16-AD-GPC412 (VP-16-AD fused to GPC4 deficient in the 12 amino acids of Clone 5) (human, UniProt O75487 19-556); assay: mammalian two-hybrid luciferase assay
T6 construct: also called 12 amino acid deficient version of GPC4
T6 sequence: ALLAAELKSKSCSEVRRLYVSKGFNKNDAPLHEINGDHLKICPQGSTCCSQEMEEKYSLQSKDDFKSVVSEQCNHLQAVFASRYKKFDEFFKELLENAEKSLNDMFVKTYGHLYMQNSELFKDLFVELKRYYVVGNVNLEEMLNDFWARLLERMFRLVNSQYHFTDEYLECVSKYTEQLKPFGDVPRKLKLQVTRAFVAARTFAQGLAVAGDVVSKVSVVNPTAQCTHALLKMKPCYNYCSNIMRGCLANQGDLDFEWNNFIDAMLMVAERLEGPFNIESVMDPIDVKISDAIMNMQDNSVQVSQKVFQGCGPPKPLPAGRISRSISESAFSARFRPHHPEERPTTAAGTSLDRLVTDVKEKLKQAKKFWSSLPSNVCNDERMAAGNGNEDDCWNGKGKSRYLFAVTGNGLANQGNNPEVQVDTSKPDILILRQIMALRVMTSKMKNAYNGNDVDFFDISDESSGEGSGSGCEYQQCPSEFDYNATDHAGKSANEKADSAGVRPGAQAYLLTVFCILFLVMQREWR

T5 sequence (P02769 25-607 limits assumed): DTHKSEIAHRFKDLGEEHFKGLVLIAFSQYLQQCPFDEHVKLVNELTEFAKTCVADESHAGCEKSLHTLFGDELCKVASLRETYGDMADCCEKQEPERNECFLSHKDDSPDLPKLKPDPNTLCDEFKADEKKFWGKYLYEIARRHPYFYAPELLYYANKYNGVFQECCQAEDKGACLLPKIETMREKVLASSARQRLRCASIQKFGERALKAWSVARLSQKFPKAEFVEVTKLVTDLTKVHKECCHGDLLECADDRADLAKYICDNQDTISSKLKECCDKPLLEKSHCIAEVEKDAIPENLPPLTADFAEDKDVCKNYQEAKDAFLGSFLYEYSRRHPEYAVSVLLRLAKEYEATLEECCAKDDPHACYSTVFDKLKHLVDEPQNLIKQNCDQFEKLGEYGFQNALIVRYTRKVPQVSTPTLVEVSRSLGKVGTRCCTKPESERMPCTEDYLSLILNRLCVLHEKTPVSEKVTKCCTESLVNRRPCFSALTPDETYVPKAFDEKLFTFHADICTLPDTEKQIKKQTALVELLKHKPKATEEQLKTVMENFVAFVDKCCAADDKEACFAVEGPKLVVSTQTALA
T2 sequence (Q15796 2-467 limits assumed): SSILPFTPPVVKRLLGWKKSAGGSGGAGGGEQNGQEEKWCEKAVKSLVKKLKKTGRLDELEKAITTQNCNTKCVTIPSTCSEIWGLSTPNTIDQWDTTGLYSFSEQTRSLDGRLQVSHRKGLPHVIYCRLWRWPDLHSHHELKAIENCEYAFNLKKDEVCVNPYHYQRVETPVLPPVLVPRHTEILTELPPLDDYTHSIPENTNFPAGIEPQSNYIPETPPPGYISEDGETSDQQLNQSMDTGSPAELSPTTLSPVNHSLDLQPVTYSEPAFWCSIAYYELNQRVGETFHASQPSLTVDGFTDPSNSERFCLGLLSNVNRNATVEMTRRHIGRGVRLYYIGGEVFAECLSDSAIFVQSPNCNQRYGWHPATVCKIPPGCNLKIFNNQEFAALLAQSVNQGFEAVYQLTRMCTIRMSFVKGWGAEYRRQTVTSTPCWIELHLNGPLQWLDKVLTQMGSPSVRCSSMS
T3 sequence (P37173 23-567 limits assumed): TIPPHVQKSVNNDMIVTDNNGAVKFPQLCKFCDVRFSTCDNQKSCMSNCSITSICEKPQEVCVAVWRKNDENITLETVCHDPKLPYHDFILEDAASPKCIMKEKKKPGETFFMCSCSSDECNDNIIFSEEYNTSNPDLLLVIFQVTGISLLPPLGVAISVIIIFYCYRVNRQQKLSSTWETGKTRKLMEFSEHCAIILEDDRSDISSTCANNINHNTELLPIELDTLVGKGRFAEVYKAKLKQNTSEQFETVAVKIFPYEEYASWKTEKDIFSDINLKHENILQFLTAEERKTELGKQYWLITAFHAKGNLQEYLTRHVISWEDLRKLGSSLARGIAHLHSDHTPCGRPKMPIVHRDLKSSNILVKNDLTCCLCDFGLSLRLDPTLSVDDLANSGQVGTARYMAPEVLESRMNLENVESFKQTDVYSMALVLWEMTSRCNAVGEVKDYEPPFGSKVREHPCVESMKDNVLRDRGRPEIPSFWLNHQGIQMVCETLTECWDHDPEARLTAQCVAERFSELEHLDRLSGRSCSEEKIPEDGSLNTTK

B1: M13 phage clone displaying SEQ ID NO:22 (peptide)
peptide: TPSLPPTMFRLT
notes: also called ID No. 22; not shown: M13 phage coat protein carrying the random 12-mer; not specified
Question: How did the “Fre (frequency among 44 sequenced clones after bio-panning with TRAP)” value [1] turn out when B1 was run?
Answer: Its value is 4 of 44 clones.

Question: And the “fold increase in affinity for TRAP over wild type phage” value [2]?
Answer: Its value is 40 fold.

B2: M13 phage clone displaying SEQ ID NO:21 (peptide)
peptide: SQWHPRSASYPM
notes: also called ID No. 21; not shown: M13 phage coat protein carrying the random 12-mer; not specified
Question: How did the “Fre (frequency among 44 sequenced clones after bio-panning with TRAP)” value [1] turn out when B2 was run?
Answer: The value was 4 of 44 clones.

Question: What about the “fold increase in affinity for TRAP over wild type phage” value [2] of the same binder?
Answer: The value was 40 fold.

B3: GST-TRAP fusion protein (other)
chain: ATPALRFVAVGDWGGVPNAPFHTAREMANAKEIARTVQILGADFILSLGDNFYFTGVQDINDKRFQETFEDVFSDRSLRKVPWYVLAGNHDHLGNVSAQIAYSKISKRWNFPSPFYRLHFKIPQTNVSVAIFMLDTVTLCGNSDDFLSQQPERPRDVKLARTQLSWLKKQLAAAREDYVLVAGHYPVWSIAEHGPTHCLVKQLRPLLATYGVTAYLCGHDHNLQYLQDENGVGYVLSGAGNFMDPSKRHQRKVPNGYLRFHYGTEDSLGGFAYVEISSKEMTVTYIEASGKSLFKTRLPRRARP
notes: also called 'GST' tagged TRAP; recombinant GST-TRAP; not shown: glutathione S-transferase tag (Amersham Pharmacia GST system)
Question: Does B3 bind [3]?
Answer: Result: no binding

Question: Does B3 bind [4]?
Answer: Result: no binding

B4: Clone 5 phage (M13 phage displaying the 12-mer TPLSYLKGLVTV) (peptide)
peptide: TPLSYLKGLVTV
modifications: also: displayed on M13 phage coat protein (protein and linker not given here)
notes: also called GPC4 phage (Clone 5); ID No. 23; not shown: M13 phage coat protein carrying the random 12-mer
Question: Which results are given for B4?
Answer: Fre (frequency among 44 sequenced clones after bio-panning with TRAP) [1]: 15 of 44 clones; Kd [5]: 0.11 nM; binding result [6]: no binding (tested: 5 ug loaded); binding result [7]: no binding (tested: 5 ug loaded)

B5: GAL-4-BD-TRAP fusion protein (other)
chain: MKLLSSIEQACDICRLKKLKCSKEKPKCAKCLKNNWECRYSPKTKRSPLTRAHLTEVESRLERLEQLFLLIFPREDLDMILKMDSLQDIKALLTGLFVQDNVNKDAVTDRLASVETDMPLTLRQHRISATSSSEESSNKGQRQLTVSATPALRFVAVGDWGGVPNAPFHTAREMANAKEIARTVQILGADFILSLGDNFYFTGVQDINDKRFQETFEDVFSDRSLRKVPWYVLAGNHDHLGNVSAQIAYSKISKRWNFPSPFYRLHFKIPQTNVSVAIFMLDTVTLCGNSDDFLSQQPERPRDVKLARTQLSWLKKQLAAAREDYVLVAGHYPVWSIAEHGPTHCLVKQLRPLLATYGVTAYLCGHDHNLQYLQDENGVGYVLSGAGNFMDPSKRHQRKVPNGYLRFHYGTEDSLGGFAYVEISSKEMTVTYIEASGKSLFKTRLPRRARP
notes: Expressed inside transfected cells
Question: Does B5 bind [8]?
Answer: Result: no binding
